The values that follow come from patent US20240247072A1 (KEYMED BIOSCIENCES, published 2024).

The target of assay [1] is T1, recombinant cynomolgus monkey CD70 protein (cynomolgus monkey, UniProt A0A2K5WTU9 39-190).
T1 construct: it stands only in column heads ('Monkey', 'Cynomolgus Monkey CD70/CD27') and in result sentences; also called Monkey (ELISA)
T1 sequence: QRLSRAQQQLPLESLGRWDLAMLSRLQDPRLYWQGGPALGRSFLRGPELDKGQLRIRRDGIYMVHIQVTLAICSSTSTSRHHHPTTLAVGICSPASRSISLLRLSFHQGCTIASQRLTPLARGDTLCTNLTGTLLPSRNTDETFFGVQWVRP
In words: competition ELISA, humanized IgG1 titrated, CD27 coated, biotin-CD70, cynomolgus pair. A general note: ELISA stands for enzyme-linked immunosorbent assay.

For assay [2], the target named is T2, human CD70, full length, on CHO cells (CHO-human CD70-B07) (human, UniProt P32970 1-193).
T2 construct: whole, on cells; Stably transfected CHO cells; also called CHO-CD70
T2 sequence (looked up): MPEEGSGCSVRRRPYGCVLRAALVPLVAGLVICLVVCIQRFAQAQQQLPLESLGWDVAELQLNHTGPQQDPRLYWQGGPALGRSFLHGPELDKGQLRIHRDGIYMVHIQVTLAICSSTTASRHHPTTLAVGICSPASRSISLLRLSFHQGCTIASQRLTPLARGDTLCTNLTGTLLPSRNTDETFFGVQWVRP
The experiment in a line: flow cytometry, humanized IgG1 on CHO-human CD70 cells. On the procedure:
(§1) The supernatant was discarded and the cells were gently tapped to be loosening. 50 μL of gradient diluted antibodies were added (antibody concentration: from 30 μg/mL, 3-fold dilution for 8 gradients) per well, and incubated at 4° C. for 1 hour. After incubation, 200 μL of 0.5% BSA was added to each well for washing 3 times. 50 μL/well of secondary antibody Alexa Fluro647 anti-human IgG (Jackson ImmunoResearch, Cat. No: 109-606-170) was added and incubated at 4° C. for 45 minutes. At the end of the incubation, each well was washed 3 times with 180 μL of 0.5% BSA and finally resuspended in 50 μL of PBS for iQue (Intellicyt) assay.
(A flow cytometer gives signals particle by particle.)

The target in assay [3] is T3, recombinant trimeric protein of human CD70 extracellular region (human CD70 mIgG Fc (knob) / mouse IgG Fc … (human, UniProt P01863 98-330 = IgG part)).
T3 chain 1: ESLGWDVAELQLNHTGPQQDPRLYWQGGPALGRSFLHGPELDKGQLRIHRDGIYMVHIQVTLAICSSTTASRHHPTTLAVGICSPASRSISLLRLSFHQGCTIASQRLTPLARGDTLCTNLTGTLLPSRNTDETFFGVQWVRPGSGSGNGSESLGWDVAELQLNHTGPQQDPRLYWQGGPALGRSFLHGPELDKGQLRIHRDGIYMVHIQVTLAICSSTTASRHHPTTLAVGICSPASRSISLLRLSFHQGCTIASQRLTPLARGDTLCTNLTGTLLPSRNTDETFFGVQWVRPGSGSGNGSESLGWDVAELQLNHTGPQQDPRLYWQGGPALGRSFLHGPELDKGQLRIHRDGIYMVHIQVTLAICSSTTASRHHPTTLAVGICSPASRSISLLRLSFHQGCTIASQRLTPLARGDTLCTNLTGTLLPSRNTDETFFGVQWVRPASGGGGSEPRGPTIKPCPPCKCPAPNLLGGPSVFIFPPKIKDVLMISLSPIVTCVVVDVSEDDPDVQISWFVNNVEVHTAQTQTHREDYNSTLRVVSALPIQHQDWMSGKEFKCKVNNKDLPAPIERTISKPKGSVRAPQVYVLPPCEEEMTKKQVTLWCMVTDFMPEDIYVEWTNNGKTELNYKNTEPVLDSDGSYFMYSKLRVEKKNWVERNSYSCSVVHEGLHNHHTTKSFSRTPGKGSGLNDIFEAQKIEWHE
T3 chain 2: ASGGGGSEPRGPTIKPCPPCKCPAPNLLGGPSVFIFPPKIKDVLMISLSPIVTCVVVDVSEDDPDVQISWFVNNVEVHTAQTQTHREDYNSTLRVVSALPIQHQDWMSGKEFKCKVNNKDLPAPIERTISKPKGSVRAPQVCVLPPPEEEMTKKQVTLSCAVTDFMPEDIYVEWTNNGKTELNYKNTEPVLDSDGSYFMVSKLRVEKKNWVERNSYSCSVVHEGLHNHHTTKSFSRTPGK
The experiment in a line: cell-based or functional assay.

For assay [4], the target named is T3, recombinant trimeric protein of human …. The experiment in a line: competition ELISA, humanized IgG1 titrated, CD27 coated, biotin-CD70, human pair. On the procedure: The recombinant human CD27 protein was coated at 1 μg/mL in a 96-well microtiter plate and incubated overnight at 4° C. The next day, the plate was washed 3 times with PBS, added with 200 μL of 2% defatted dry milk/PBS, blocked at room temperature for 2 hours, and washed once with PBS. […] 30 μl of the antibody was added per well and incubated at room temperature for 30 minutes. […] The plate was washed 3 times with PBST and PBS and dried by spinning. A secondary antibody solution Streptavidin-coupled horseradish peroxidase SA-HRP (BD bioscience, Cat. No: 6222697) was diluted with 0.5% BSA in a ratio of 1:8000. 100 μL of the diluent was added into each well and incubated at room temperature for 30 minutes. The plate was washed 3 times with PBST and PBS and dried by spinning. […] of color development solution (TMB solution, Sigma, Cat. No: T2885) was added into each well and protected from light at 37° C. for reaction. After the substrate developed moderately, […] of H₂SO₄ was added into each well to terminate the reaction. The OD450 nm was determined using an enzyme-linked detector within 30 minutes, and the data was collected. The results were calculated by using Graph Pad Prism 5 software. See FIG. 10-1, 10-2, and Table 12 for the results.

In assay [5] the target is T4, cynomolgus monkey CD70, full length, on CHO cells (CHO-monkey CD70-D01) (cynomolgus monkey, UniProt A0A2K5WTU9 1-190).
T4 construct: whole, on cells; Stably transfected CHO cells; also called CHO-cynomolgus monkey CD70
T4 sequence: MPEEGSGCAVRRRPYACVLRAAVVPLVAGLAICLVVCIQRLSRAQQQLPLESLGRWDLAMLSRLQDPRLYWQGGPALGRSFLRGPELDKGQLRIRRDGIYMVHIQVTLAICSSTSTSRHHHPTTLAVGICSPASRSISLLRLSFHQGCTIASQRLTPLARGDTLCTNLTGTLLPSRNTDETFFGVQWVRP
The experiment in a line: flow cytometry, humanized IgG1 on CHO-cynomolgus monkey CD70 cells. The method, then: as §1

In assay [6] the target is T4, cynomolgus monkey CD70, full length, on …. The experiment in a line: flow cytometry, Fab on CHO-cynomolgus CD70 cells. The method, then:
(§2) The blank control cell CHO and stably-transfected cell line CHO-CD70 were prepared and added at 5×10⁴ cells/well into a 96-well plate respectively. 50 μL of Fab antibodies with different dilution gradients were added into each well and incubated at 4° C. for 60 minutes. The centrifuge was performed to discard the supernatant. The plate was washed with 0.5% BSA/PBS and added with 50 μL of a secondary antibody solution (Anti-human IgG F (ab′) 2-AF647, Jackson Immuno Research) and incubated at 4° C. for 45 minutes. The excess secondary antibody was washed off with 0.5% BSA. The PBS solution was added to resuspend cells for flow cytometry. The data was collected.

Assay [7] deals with T1, recombinant cynomolgus monkey CD70 …. The experiment in a line: competition ELISA, Fab titrated, cynomolgus CD27 coated, biotin-CD70. On the procedure: (§3) The next day, the plate was washed 3 times with PBS, added with 200 μL of 2% defatted dry milk/PBS, blocked at room temperature for 2 hours, and washed once with PBS, 50 μL of different dilution gradients of Fab antibodies were added and incubated at room temperature for 30 minutes. […] The plate was washed 3 times with PBST and PBS and dried by spinning. A secondary antibody solution Streptavidin-coupled horseradish peroxidase SA-HRP (BD bioscience, Cat. No: 6222697) was diluted with 0.5% BSA in a ratio of 1:8000. 100 μl of the diluent was added into each well and incubate at room temperature for 30 minutes. The plate was washed 3 times with PBST and PBS and dried by spinning. 100 μl of the color development solution (TMB solution, Sigma, Cat. No: T2885) was added into each well and protected from light at 37° C. for reaction. After the substrate developed moderately, 50 μl of 2M concentrated sulfuric acid solution was added into each well to terminate the reaction. The OD450 nm was determined by using an enzyme-linked detector within 30 minutes, and the data was collected.

The target in assay [8] is T3, recombinant trimeric protein of human …. In words: BLI (Octet), biotin antigen on SA probe, Fab in solution. In general terms: BLI is a label-free optical method that tracks binding on a fibre tip over time.
The target in assay [9] is T2, human CD70, full length, on CHO cells …. The experiment in a line: flow cytometry, Fab on CHO-human CD70 cells. The method, then: as §2
Assay [10] addresses T3, recombinant trimeric protein of human …. The experiment in a line: competition ELISA, Fab titrated, human CD27 coated, biotin-CD70. On the procedure: as §3

Residue numbers refer to the chain shown, from its start.

B1: humanized antibody Ab001 (antibody, human IgG1, V domains shown)
VH: QIQLVQSGSELKKPGASVKVSCKASGYTFTNYGMNWVRQAPGQGLEWMGWINTYTGEPTYADGFTGRFVFSLDTSASTAYLQISSLKAEDTAVYFCAREEDYRYVFNYWGQGTLVTVSS
VL: DIQMTQSPSSLSASVGDRVTITCQASQDISNYLNWYQQKPGKAPKLLIYDTSRLHAGVPSRFSGSGSGTDYTFTISSLQPEDIATYFCQQGVTLPLTFGQGTKLEIK
notes: also called h39H5 VHv1 + h39H5 VKv1
Broadly, the IC50 is the concentration at which inhibition is half-maximal. What is called EC50 is the concentration needed to bring the measured effect to its halfway point. Consider B1, for which the IC50 in [1] came to 0.05 nM; in [4] it was 0.04 nM. Besides, the EC50 in assay [2] was found to be 2 nM; in assay [5] it was 5.78 nM. Moreover, in assay [3], the “Inhibition of IL-8 secretion IC50(nM), HT1080-human CD27 cells stimulated with recombinant human CD70” value amounted to 10.7 nM.

B2: humanized antibody Ab007 (antibody, human IgG1, V domains shown)
VH: B1 VH with I2V, F95Y
VL: B1 VL
notes: also called Ab007 IgG1; h39H5 VHv3 + h39H5 VKv1
Consider B2, for which the IC50 in assay [1] was 0.05 nM; in [4] it was 0.04 nM. Further, the EC50 in assay [2] is 2.57 nM; in assay [5] it was 3.14 nM. Also, the “Inhibition of IL-8 secretion IC50(nM), HT1080-human CD27 cells stimulated with recombinant human CD70” value in [3] was found to be 9.92 nM.

B3: 25H7 Fab antibody (Fab, V domains shown)
VH: EIQLVQSGPELKKPGETVKISCKASGYTFTNYGMNWVKQTPGKGLKWMGWINTDTGEPTYADDFKGRFAFSLETSASTAYLQINNLKNEDMATYFCAREEDYRYVFNYWGQGTTLTVSS
VL: DIQMTQTTSSLSASLGDRVTISCRASQDISNYLNWYQQKPDGTVKLLIYYTSRLHSGVPSRFSGSGSGTDYSLTISNLEQEDIATYFCQQGVTLPLTFGAGTKLELK
notes: Purified Fab from the mouse Fab phage display library
For orientation: koff means a measure of how fast the partners let go of each other. In the case of B3, the EC50 in assay [6] amounted to 23.4 nM; in assay [9], 15.5 nM. In addition, the results for the IC50 in assay [7] and in assay [10] were 14.4 nM and 0.76 nM, respectively. Further, the koff in assay [8] came out at 0.000326 s⁻¹.

B4: 39H5 Fab antibody (Fab, V domains shown)
VH: B3 VH with T40A, K43Q, D54Y, K65T, T93A
VL: B3 VL with T5I, T7S, D17N, Y50D, S56A, L106I
notes: as for B3
Take B4: the EC50 is 10.2 nM in assay [6] and 8.7 nM in [9]. Besides, the IC50 in [7] stood at 0.37 nM; in assay [10], 0.38 nM. In [8], the koff came to 9e-05 s⁻¹.

B5: 26G11 Fab antibody (Fab, V domains shown)
VH: QVQLQQSGPELVKPGASVKISCKTSGYTFADYTMHWVRQSQGKSLEWIGDIYPNDGGPNNNQKFKDKATLTVDKSSSTAYMELRSLTSEDSAVYYCARPFYYGNYAGFAFWGQGTLVTVSA
VL: EMVLTQSPAIMSASPGEKVTMTCSASSSVSYMYWYQQKPGSSPRLLIYDTSNLASGVPVRFSGSGSGTSYSLTISRMEAEDAATYYCQQWSSYPLTFGAGTRLEIK
notes: as for B3
B5: the EC50 is 49.7 nM in [6] and 40.7 nM in assay [9]. In addition, the IC50 in assay [7] was determined as 4.36 nM; in assay [10] it was 4.82 nM. Moreover, the koff in assay [8] worked out at 0.000287 s⁻¹.
